This note sets out measurements from PMC9177958, “Structures of nonsense-mediated mRNA decay factors UPF3B and UPF3A in complex with UPF2 reveal molecular basis for competitive binding and for neurodevelopmental disorder-causing mutation” (Nucleic Acids Research, 2022).

Data set [1] has as its target T1, UPF3B-WT (human, UniProt Q9BZI7-2 1-470).
T1 sequence: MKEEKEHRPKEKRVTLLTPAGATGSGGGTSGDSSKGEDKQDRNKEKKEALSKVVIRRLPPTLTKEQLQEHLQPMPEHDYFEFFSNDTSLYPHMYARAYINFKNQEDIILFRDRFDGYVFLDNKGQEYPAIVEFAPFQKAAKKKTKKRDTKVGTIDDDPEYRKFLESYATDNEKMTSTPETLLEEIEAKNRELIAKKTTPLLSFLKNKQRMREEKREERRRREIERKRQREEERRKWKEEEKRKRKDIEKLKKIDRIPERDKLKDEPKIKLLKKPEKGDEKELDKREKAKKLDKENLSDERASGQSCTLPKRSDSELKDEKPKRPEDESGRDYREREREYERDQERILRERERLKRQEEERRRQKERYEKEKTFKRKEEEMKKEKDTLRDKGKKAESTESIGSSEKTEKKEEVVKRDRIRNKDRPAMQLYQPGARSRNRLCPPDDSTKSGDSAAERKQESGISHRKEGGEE
The experiment in a line: fluorescence anisotropy; FA: 5 nM probe, 150 mM NaCl, 25 mM HEPES pH 7.45, 1 mM TCEP, 20 C; EMSA: 250 nM probe, 25 mM HEPES pH 7.45, 2 mM MgCl2, 150 mM NaCl, 0.5 mM TCEP, on ice. The following applies: protein: recombinant, tags: 6xHis removed by TEV. For orientation: Fluorescence polarisation rises when a labelled molecule tumbles more slowly, as on binding a larger partner.

Data set [2] concerns the target UPF2-MIF4GIII (UniProt Q9HAU5 761-1054). Described as above. The following applies: protein: recombinant; tags: 6xHis removed by TEV; label: 5' HEX; single strand; 24-mer hairpin RNA.
Data set [3] has as its target UPF3B-41-143 (RRM-L);UPF2-MIF4GIII (human;human?, UniProt Q9BZI7;Q9HAU5 41-143;761-1054, |). The data set is described as above. The following applies: protein: recombinant;recombinant; tags: 6xHis removed by TEV;6xHis removed by TEV; copies: 1;1; label: 5' HEX; single strand; 24-mer hairpin RNA.
The target in data set [4] is T2, UPF3B-146-417 (human, UniProt Q9BZI7-2 146-417).
T2 sequence: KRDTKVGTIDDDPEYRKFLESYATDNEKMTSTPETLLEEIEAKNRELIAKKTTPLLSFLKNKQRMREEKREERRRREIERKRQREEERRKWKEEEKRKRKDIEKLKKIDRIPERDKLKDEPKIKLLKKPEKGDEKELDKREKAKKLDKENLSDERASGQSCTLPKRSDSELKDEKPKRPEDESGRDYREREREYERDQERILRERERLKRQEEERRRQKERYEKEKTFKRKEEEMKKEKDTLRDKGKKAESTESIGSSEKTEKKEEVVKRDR
The description is as above. The following applies: protein: recombinant; tags: 6xHis removed by TEV; label: 5' HEX on strand 1; blunt.

The target in data set [5] is T3, UPF3B-146-256 (human, UniProt Q9BZI7 146-256).
T3 sequence: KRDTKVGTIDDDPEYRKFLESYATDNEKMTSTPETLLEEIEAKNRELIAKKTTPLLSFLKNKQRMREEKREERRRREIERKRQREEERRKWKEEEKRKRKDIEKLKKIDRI
The data set is described as above. The following applies: protein: recombinant; tags: 6xHis removed by TEV; label: 5' HEX on strand 1; blunt.

Data set [6] addresses T4, UPF3B-41-262 (human, UniProt Q9BZI7 41-262).
T4 sequence: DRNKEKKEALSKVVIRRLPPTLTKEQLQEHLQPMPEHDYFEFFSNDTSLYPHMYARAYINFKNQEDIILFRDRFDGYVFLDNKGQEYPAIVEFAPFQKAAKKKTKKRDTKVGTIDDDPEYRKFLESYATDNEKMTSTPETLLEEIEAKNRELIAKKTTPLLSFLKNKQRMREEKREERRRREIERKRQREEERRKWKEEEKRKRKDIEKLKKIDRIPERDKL
Described as above. The following applies: protein: recombinant; tags: 6xHis removed by TEV; label: 5' HEX on strand 1; blunt.

The target of data set [7] is T5, UPF3B-41-214 (human, UniProt Q9BZI7 41-214).
T5 sequence: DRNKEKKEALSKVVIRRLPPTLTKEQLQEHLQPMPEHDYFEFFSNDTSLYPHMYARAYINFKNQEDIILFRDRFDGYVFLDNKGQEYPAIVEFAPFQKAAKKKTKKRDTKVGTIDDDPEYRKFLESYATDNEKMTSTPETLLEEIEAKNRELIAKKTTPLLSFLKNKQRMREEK
The description is as above. The following applies: protein: recombinant; tags: 6xHis removed by TEV; label: 5' HEX on strand 1; blunt.

Data set [8] addresses T6, UPF3B-41-143 (RRM-L) (human, UniProt Q9BZI7 41-143).
T6 sequence: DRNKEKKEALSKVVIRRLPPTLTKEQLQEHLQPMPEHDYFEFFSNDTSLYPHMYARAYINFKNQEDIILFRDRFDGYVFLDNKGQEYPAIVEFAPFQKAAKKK
The data set is described as above. The following applies: protein: recombinant; tags: 6xHis removed by TEV; label: 5' HEX on strand 1; blunt.

Data set [9] concerns the target T7, UPF2L (120–1227) (UniProt Q9HAU5 120-1227).
T7 construct: UPF2, larger construct with wildtype activity, amino acids 120-1227; source: E. coli BL21 Rosetta2(DE3), purified (Ni-NTA, TEV, reverse IMAC, ion exchange)
T7 sequence (looked up): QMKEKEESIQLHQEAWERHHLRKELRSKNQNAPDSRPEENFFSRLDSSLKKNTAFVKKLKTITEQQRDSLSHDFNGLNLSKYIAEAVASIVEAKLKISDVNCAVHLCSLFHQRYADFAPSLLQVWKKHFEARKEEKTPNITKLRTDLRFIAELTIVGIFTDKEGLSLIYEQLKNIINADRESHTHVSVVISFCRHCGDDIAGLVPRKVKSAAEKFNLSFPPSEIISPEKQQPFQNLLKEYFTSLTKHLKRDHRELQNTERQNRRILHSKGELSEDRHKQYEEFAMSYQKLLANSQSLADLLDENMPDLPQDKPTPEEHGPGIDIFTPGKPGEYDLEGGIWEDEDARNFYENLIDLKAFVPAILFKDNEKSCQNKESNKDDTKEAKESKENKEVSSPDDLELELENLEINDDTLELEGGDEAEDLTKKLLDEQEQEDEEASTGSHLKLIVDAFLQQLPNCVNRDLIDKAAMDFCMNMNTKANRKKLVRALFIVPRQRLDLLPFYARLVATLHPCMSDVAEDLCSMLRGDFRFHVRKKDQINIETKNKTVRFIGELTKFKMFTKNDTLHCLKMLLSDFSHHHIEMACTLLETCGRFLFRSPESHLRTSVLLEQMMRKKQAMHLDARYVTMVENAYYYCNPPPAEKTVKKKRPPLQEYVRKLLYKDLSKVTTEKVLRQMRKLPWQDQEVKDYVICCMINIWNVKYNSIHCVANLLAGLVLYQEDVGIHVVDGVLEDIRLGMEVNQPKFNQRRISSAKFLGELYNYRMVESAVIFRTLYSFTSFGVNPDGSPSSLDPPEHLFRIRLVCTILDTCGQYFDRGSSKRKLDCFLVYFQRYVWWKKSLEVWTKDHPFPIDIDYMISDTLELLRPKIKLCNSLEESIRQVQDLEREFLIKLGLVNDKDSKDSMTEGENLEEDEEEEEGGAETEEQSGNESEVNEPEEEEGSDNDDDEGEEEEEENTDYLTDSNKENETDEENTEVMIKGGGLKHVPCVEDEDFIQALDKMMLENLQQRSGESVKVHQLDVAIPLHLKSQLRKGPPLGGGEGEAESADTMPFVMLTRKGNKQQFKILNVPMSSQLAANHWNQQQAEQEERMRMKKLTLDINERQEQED
Put plainly: native gel or EMSA; 250 nM HEX-labelled ssRNA with 2 μM UPF3B-WT or UPF2L and increasing ratios of the other; on ice 1 h; 25 mM HEPES pH 7.45, 2 mM MgCl2, 150 mM NaCl, 0.5 mM TCEP; 4–20% Tris-Glycine native gel, Coomassie. The following applies: both partners purified.

B1: 24mer ssRNA (ssRNA)
RNA: CACUGAUCUGACGCUGCACCUGGG
On to B1, for which the Kd in data set [1] (label: 5' HEX, single strand, 24-mer hairpin RNA) was 30 nM; in data set [2] it was roughly 700 nM; in data set [3], 620 nM.

B2: 24mer dsRNA (dsRNA)
RNA 1: CCCUGAGCUGACGCAGCACCUGGG
RNA 2: CCCAGGUGCUGCGUCAGCUCAGGG
As to B2, the Kd in [1] (label: 5' HEX on strand 1, blunt) was 15 nM; in data set [4], 280 nM; in data set [5] it was 1800 nM; in [6], 37 nM; in data set [7] it was 1200 nM; in [8], 9200 nM.

B3: UPF3B-WT (residues 1–470) (natural protein, human, UniProt Q9BZI7-2 1-470, looked up)
chain: T1 sequence
notes: UPF3B, human, isoform 2 (the predominant form found in cells), residues 1-470, printed length 470; also called full-length UPF3B; source: insect cells (MultiBac), purified (Ni-NTA, TEV, reverse IMAC, ion exchange)
On to B3, for which, in data set [9], the binding result is on record as “binds”.

For orientation: Kd means the concentration at which binding is half-saturated.
